The values that follow come from FireProtDB (doi:10.1021/bi00150a030).

For this series the following is noted: Rattus norvegicus, pH 7, Fluorescence, Sodium-Potassium phosphate 0.1 M; for denaturant m value / denaturant midpoint (higher = more stable) / unfolding free energy: 15 °C, GdnHCl; for Tm / change of melting temperature, mutant - wild type (higher = more stable): Thermal.

Chain of Cytochrome c, somatic wild type, P62898 (P62898 whole entry): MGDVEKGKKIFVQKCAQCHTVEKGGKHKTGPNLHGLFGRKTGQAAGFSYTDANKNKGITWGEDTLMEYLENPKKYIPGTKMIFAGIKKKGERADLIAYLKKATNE
Chain of Cytochrome c, somatic P31A, P62898 (P62898 whole entry P31A): as the sequence (P62898 whole entry) above, with P31A counted along it
Chain of Cytochrome c, somatic Y68F, P62898 (P62898 whole entry Y68F): as the sequence (P62898 whole entry) above, with Y68F counted along it
Chain of Cytochrome c, somatic P31A|Y68F, P62898 P31A Y68F (P62898 whole entry P31A/Y68F): as the sequence (P62898 whole entry) above, with P31A, Y68F counted along it

One may read the Tm as the temperature at which the thermal transition is half complete. For the substance Cytochrome c, somatic P31A, P62898, where the note is “structure 1I5T”, the denaturant m value turned out to be 0.7 kcal/mol/M, the “denaturant midpoint (higher = more stable)” value (from here on “denaturant midpoint”) came out at 5.38 M, the unfolding free energy turned out to be 15.7 kJ/mol and the Tm worked out at 51 °C. Further, where the note is “structure 1I5T”, the “change of melting temperature, mutant - wild type (higher = more stable)” value was -9 °C.
Taken in the same sequence, the figures for “Cytochrome c, somatic P31A|Y68F, P62898 P31A Y68F” were 1.16 kcal/mol/M, 5.81 M, 28.2 kJ/mol, 62 °C and 2 °C.
As to Cytochrome c, somatic Y68F, P62898, where the note is “structure 1I5T”, the denaturant m value came out at 0.86 kcal/mol/M, the “denaturant midpoint” value is 8.33 M, the unfolding free energy was determined as 30.1 kJ/mol and the midpoint of thermal melting (Tm) was determined as 90 °C. In addition, where the note is “structure 1I5T”, the “change of melting temperature, mutant - wild type (higher = more stable)” value was 30 °C.
Take Cytochrome c, somatic wild type, P62898: the denaturant m value is 1.21 kcal/mol/M, the “denaturant midpoint” value was found to be 7.6 M, the unfolding free energy came to 38.3 kJ/mol and the Tm worked out at 60 °C.
